Patent US20030040050A1 (published 2003)

Key:
[1] = target: T1, HA-TAK1 (UniProt Q62073 1-579, limits assumed); test: coimmunoprecipitation from transfected 293 cells: IP anti-T7, immunoblot anti-HA
T1 construct: I recall the cited Yamaguchi 1995 clone as mouse TAK1 (Q62073); human TAK1 is O43318; also called HA-tagged TAK1 protein
T1 sequence (looked up): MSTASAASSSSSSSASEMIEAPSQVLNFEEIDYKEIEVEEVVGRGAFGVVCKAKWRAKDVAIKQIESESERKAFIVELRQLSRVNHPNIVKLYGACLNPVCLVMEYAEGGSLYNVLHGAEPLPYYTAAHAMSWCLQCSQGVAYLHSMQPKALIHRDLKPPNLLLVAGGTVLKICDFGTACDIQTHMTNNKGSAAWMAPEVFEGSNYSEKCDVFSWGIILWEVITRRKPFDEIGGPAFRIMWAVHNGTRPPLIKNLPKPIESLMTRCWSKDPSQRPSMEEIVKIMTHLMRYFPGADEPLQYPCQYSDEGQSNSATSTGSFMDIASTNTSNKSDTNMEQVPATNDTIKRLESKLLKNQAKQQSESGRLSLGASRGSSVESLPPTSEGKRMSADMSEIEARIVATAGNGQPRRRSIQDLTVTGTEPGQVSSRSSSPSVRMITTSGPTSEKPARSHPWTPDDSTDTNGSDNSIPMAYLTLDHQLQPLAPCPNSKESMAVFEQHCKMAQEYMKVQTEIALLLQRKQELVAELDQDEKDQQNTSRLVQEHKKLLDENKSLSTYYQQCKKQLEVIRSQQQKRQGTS
Method: 293 cells were transiently transfected with an expression vector for HA-TAK1 in combination with empty vector (−) or with expression vectors for T7-TAB2-Full length (Full), T7-TAB2C (C), or T7-TAB2N (N) as indicated. Cell extracts were immunoprecipitated (IP) with anti-T7 (7) or mouse IgG (C). Coprecipitated HA-TAK1 was detected by immunoblotting (IB) with anti-HA (upper panel, left). The amounts of immunoprecipitated T7-TAB2 proteins were determined with anti-T7 (lower panel). Whole cell extracts were immunoblotted with anti-HA to determine total amounts of HA-TAK1 (upper panel, right). Schematic representation of various TAB2 constructs is shown in the lower part. The coiled-coil regions are indicated by solid boxes.

[2] = target: T2, Flag-TRAF6 (UniProt Q9Y4K3 1-522); test: coimmunoprecipitation from transfected 293 cells: IP anti-T7, immunoblot anti-Flag
T2 construct: The anti-TRAF6C peptide covers amino acids 497 to 522, which fits the 522-residue human protein; also called Flag-tagged TRAF6; 2Flag-TRAF6
T2 sequence (looked up): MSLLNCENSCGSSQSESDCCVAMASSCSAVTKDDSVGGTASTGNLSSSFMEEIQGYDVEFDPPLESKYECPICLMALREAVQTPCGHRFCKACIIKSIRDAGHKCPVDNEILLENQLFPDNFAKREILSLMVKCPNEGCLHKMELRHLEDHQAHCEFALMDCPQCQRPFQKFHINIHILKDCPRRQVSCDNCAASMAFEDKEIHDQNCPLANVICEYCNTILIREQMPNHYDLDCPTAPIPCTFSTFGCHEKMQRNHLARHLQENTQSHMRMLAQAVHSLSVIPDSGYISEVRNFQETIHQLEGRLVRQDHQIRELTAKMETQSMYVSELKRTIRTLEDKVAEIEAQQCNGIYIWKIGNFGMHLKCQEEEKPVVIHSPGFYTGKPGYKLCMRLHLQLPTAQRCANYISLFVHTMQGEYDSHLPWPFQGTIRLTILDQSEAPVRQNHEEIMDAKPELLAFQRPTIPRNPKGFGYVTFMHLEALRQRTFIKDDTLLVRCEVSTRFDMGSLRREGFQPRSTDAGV
Source text: (A) show an association of TAB2 with […] in mammalian cells. 293 cells were transiently transfected with an expression vector for 2Flag-TRAF6 in combination with empty vector (−) or with expression vectors for T7-TAB2-Full length (Full) (Full), T7-TAB2C (C), or T7-TAB2N (N) as indicated. Cell extracts were immunoprecipitated (IP) with anti-T7 (7) or mouse IgG (C). Coprecipitated Flag-TRAF6 was detected by immunoblotting (IB) with anti-Flag (upper panel, left). The amounts of immunoprecipitated T7-TAB2 proteins were determined with anti-T7 (lower panel). Whole cell extracts were immunoblotted with anti-Flag to determine total amounts of Flag-TRAF6 (upper panel, right).
The present inventors therefore determined whether TAB2 could interact with TRAF6 (FIG. 3A). T7-TAB2 was coexpressed with Flag-tagged TRAF6 in 293 cells and immunoprecipitated with anti-T7 antibody. The immune complexes were subjected to immunoblotting with a monoclonal antibody to Flag. TAB2 efficiently precipitated with TRAF6 (lane 4). To determine which domain of TAB2 is responsible for its TRAF6 association, the inventors tested whether TAB2N or TAB2C is able to bind to TRAF6, using the same experimental procedure. […] Thus, the C-terminal domain of TAB2 is required for TRAF6 binding.

B1: T7-TAB2N (other)
chain: MASMTGGQQMGMAQGSHQIDFQVLHDLRQKFPEVPEVVVSRCMLQNNNNLDACCAVLSQESTRYLYGEGDLNFSDDSGISGLRNHMTSLNLDLQSQNIYHHGREGSRMNGSRTLTHSISDGQLQGGQSNSELFQQEPQTAPAQVPQGFNVFGMSSSSGASNSAPHLGFHLGSKGTSSLSQQTPRFNPIMVTLAPNIQTGRNTPTSLHIHGVPPPVLNSPQGNSIYIRPYITTPGGTTRQTQQHSGWVSQFNPMNPQQVYQPSQPGPWTTCPASNPLSHTSSQQPNQQGHQTSHVYMPISSPTTSQPPTIHSSGSSQSSAHSQYNIQNISTGPRKNQIEIKLEPPQRNNSSKLRSSGPRTSSTSSSVNSQTLNRNQPTVYIAASPPNTDELMSRSQPKVYISANAATGDEQV
notes: Expressed in 293 cells; also called N (1-400)
binding result [1]: no binding | binding result [2]: no binding
